Measurements from paper PMC4551919 (Nucleic Acids Research, 2015).

Legend:
Assay in all cases: MST
[1] = target: SMG-1–9 complex (human | , UniProt Q96Q15;Q9H0W8)
[2] = target: SMG-1–8–9 complex (human | , UniProt Q96Q15;Q8ND04;Q9H0W8)
[3] = target: SMG-1, full length, SBP-tagged (human, UniProt Q96Q15 1-3661)
[4] = target: SMG-1ΔC-8–9 complex (human | , UniProt Q96Q15;Q8ND04;Q9H0W8, deleted from the residues 2442 to 3591)

B1: UPF1, full length, fluorescently labeled with NT-547 (natural protein)
chain: MSVEAYGPSSQTLTFLDTEEAELLGADTQGSEFEFTDFTLPSQTQTPPGGPGGPGGGGAGGPGGAGAGAAAGQLDAQVGPEGILQNGAVDDSVAKTSQLLAELNFEEDEEDTYYTKDLPIHACSYCGIHDPACVVYCNTSKKWFCNGRGNTSGSHIVNHLVRAKCKEVTLHKDGPLGETVLECYNCGCRNVFLLGFIPAKADSVVVLLCRQPCASQSSLKDINWDSSQWQPLIQDRCFLSWLVKIPSEQEQLRARQITAQQINKLEELWKENPSATLEDLEKPGVDEEPQHVLLRYEDAYQYQNIFGPLVKLEADYDKKLKESQTQDNITVRWDLGLNKKRIAYFTLPKTDSGNEDLVIIWLRDMRLMQGDEICLRYKGDLAPLWKGIGHVIKVPDNYGDEIAIELRSSVGAPVEVTHNFQVDFVWKSTSFDRMQSALKTFAVDETSVSGYIYHKLLGHEVEDVIIKCQLPKRFTAQGLPDLNHSQVYAVKTVLQRPLSLIQGPPGTGKTVTSATIVYHLARQGNGPVLVCAPSNIAVDQLTEKIHQTGLKVVRLCAKSREAIDSPVSFLALHNQIRNMDSMPELQKLQQLKDETGELSSADEKRYRALKRTAERELLMNADVICCTCVGAGDPRLAKMQFRSILIDESTQATEPECMVPVVLGAKQLILVGDHCQLGPVVMCKKAAKAGLSQSLFERLVVLGIRPIRLQVQYRMHPALSAFPSNIFYEGSLQNGVTAADRVKKGFDFQWPQPDKPMFFYVTQGQEEIASSGTSYLNRTEAANVEKITTKLLKAGAKPDQIGIITPYEGQRSYLVQYMQFSGSLHTKLYQEVEIASVDAFQGREKDFIILSCVRANEHQGIGFLNDPRRLNVALTRARYGVIIVGNPKALSKQPLWNHLLNYYKEQKVLVEGPLNNLRESLMQFSKPRKLVNTINPGARFMTTAMYDAREAIIPGSVYDRSSQGRPSSMYFQTHDQIGMISAGPSHVAAMNIPIPFNLVMPPMPPPGYFGQANGPAAGRGTPKGKTGRGGRQKNRFGLPGPSQTNLPNSQASQDVASQPFSQGALTQGYISMSQPSQMSQPGLSQPELSQDSYLGDEFKSQIDVALSQDSTYQGERAYQHGGVTGLSQY
modifications: NT-547 dye on amines, on average one fluorescent moiety per UPF1 molecule
- Kd [1]: 56 nM
- Kd [2]: 38 nM
- Kd [3]: 75 nM
- Kd [4]: 221 nM
